# From article PMC2806667 (Molecular microbiology, 2009)
# B1: His6-VID(121-521) (domain or fragment, Bacillus subtilis, UniProt P37963 121-521, looked up)
# chain: DSRILTIQADLAIEGLLDDTQDKEPEIPLYEAPAAFREEELSEPPAHSVVEEPGASSAEEAVLQHEPPAEPPELFISKAGLREELETEKAESEPPESVASEPEAREDVKEEEESEELAVPETEVRAESETEESEPEPDPSEIEIQEIVKAKKETAEPAAAIADVREEADSPAETELREHVGAEESPALEAELHSETVIAKEKEETTVSPNHEYALRQEAQNEEAAQSDQADPALCQEEAEPDEALESVSEAALSIEDSRETASAVYMENDNADLHFHFNQKTSSEEASQEELPEPAYRTFLPEQEEEDSFYSAPKLLEEEEQEEESFEIEVRKTPSAEEPKEETPFQSFQLPESSETERKETDAVPRVAPAAETKEPQTKESDNSLYLTKLFTKEADEFSR
# B2: His6-IVA (SpoIVA) (natural protein, Bacillus subtilis, UniProt P35149 1-492, looked up)
# chain: MEKVDIFKDIAERTGGDIYLGVVGAVRTGKSTFIKKFMELVVLPNISNEADRARAQDELPQSAAGKTIMTTEPKFVPNQAMSVHVSDGLDVNIRLVDCVGYTVPGAKGYEDENGPRMINTPWYEEPIPFHEAAEIGTRKVIQEHSTIGVVITTDGTIGDIARSDYIEAEERVIEELKEVGKPFIMVINSVRPYHPETEAMRQDLSEKYDIPVLAMSVESMRESDVLSVLREALYEFPVLEVNVNLPSWVMVLKENHWLRESYQESVKETVKDIKRLRDVDRVVGQFSEFEFIESAGLAGIELGQGVAEIDLYAPDHLYDQILKEVVGVEIRGRDHLLELMQDFAHAKTEYDQVSDALKMVKQTGYGIAAPALADMSLDEPEIIRQGSRFGVRLKAVAPSIHMIKVDVESEFAPIIGTEKQSEELVRYLMQDFEDDPLSIWNSDIFGRSLSSIVREGIQAKLSLMPENARYKLKETLERIINEGSGGLIAIIL
# B3: GST-VID L201-A575 fragment (domain or fragment, Bacillus subtilis, UniProt P37963 201-575, looked up)
# chain: LREELETEKAESEPPESVASEPEAREDVKEEEESEELAVPETEVRAESETEESEPEPDPSEIEIQEIVKAKKETAEPAAAIADVREEADSPAETELREHVGAEESPALEAELHSETVIAKEKEETTVSPNHEYALRQEAQNEEAAQSDQADPALCQEEAEPDEALESVSEAALSIEDSRETASAVYMENDNADLHFHFNQKTSSEEASQEELPEPAYRTFLPEQEEEDSFYSAPKLLEEEEQEEESFEIEVRKTPSAEEPKEETPFQSFQLPESSETERKETDAVPRVAPAAETKEPQTKESDNSLYLTKLFTKEADEFSRMKICIVQQEDTIERLCERYEITSQQLIRMNSLALDDELKAGQILYIPQYKNSHA
# B4: His6-VID(121-575) (domain or fragment, Bacillus subtilis, UniProt P37963 121-575, looked up)
# chain: DSRILTIQADLAIEGLLDDTQDKEPEIPLYEAPAAFREEELSEPPAHSVVEEPGASSAEEAVLQHEPPAEPPELFISKAGLREELETEKAESEPPESVASEPEAREDVKEEEESEELAVPETEVRAESETEESEPEPDPSEIEIQEIVKAKKETAEPAAAIADVREEADSPAETELREHVGAEESPALEAELHSETVIAKEKEETTVSPNHEYALRQEAQNEEAAQSDQADPALCQEEAEPDEALESVSEAALSIEDSRETASAVYMENDNADLHFHFNQKTSSEEASQEELPEPAYRTFLPEQEEEDSFYSAPKLLEEEEQEEESFEIEVRKTPSAEEPKEETPFQSFQLPESSETERKETDAVPRVAPAAETKEPQTKESDNSLYLTKLFTKEADEFSRMKICIVQQEDTIERLCERYEITSQQLIRMNSLALDDELKAGQILYIPQYKNSHA
# Key:
# [1] = target: B2; experiment: far-Western, overlay or dot blot
# [2] = target: T1, GST-VID (full length) (Bacillus subtilis, UniProt P37963 1-575); experiment: pull-down
# T1 sequence (looked up): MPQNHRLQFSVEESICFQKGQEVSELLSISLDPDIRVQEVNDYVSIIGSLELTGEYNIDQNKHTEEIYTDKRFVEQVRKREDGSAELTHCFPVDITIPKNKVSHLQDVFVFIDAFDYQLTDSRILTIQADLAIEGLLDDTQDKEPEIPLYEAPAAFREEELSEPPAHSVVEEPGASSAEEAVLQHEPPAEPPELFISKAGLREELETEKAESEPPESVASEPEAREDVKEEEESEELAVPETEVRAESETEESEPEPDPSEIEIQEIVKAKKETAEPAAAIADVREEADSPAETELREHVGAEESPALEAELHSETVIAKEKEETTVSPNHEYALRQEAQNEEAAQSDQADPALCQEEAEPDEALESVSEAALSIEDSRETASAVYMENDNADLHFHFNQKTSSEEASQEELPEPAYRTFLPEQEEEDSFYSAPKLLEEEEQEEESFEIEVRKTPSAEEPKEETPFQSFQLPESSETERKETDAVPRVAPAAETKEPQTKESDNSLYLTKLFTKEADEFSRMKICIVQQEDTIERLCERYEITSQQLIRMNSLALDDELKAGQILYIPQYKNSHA
# [3] = target: T2, His6-VID full length (Bacillus subtilis, UniProt P37963 1-575); experiment: far-Western, overlay or dot blot
# T2 sequence (looked up): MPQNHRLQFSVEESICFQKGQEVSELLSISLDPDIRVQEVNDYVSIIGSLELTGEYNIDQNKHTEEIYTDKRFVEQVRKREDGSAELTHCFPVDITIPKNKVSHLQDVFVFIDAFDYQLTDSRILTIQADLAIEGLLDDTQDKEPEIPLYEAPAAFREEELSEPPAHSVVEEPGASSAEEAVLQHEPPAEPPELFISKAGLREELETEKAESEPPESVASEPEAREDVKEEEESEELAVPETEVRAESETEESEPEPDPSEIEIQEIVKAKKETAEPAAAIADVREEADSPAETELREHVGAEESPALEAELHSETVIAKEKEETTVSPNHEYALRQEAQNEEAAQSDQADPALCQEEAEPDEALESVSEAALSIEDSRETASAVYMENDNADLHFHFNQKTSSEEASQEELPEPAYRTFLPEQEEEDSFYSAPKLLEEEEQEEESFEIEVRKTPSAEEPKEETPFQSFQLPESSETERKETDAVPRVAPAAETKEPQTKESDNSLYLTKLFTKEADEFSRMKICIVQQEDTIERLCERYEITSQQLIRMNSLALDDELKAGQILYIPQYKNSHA
# [4] = target: B2; experiment: pull-down
binder,measurement,setting,value
B1,binding result,[1],binds
B2,binding result,[2],binds
same,binding result,[3],binds
B3,binding result,[4],binds
B4,binding result,[1],binds
